Consider 1 substance from patent CN114591431A.

The target in this test is 重组人GAS6 his 蛋白(Novoprotein，Cat#C01W) (human) (UniProt Q14393). In words: ELISA, coated human GAS6 his 0.5 ug/ml, positive control.
Sequence of UniProt Q14393 (Q14393 31-678 limits assumed, stated change not applied): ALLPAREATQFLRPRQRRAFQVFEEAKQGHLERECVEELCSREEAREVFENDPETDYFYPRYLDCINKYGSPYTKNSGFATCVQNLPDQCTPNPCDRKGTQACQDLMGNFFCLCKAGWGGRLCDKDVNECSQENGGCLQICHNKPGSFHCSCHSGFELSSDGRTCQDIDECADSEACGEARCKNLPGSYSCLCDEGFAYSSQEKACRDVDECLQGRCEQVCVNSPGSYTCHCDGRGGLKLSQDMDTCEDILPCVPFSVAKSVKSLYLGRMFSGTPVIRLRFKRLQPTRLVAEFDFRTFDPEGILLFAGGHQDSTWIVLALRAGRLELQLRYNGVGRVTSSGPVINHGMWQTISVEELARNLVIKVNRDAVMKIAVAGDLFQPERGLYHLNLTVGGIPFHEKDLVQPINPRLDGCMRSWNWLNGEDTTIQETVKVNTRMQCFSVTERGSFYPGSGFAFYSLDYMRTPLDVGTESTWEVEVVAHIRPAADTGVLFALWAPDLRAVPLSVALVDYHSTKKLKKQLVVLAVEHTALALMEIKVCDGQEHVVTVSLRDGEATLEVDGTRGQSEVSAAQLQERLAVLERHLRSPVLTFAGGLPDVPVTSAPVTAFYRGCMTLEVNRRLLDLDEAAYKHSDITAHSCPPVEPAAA

As for “anti-huGas6 antibody (Santa cruz, sc-376087)”, the half-maximal effective concentration (EC50) (usually the midpoint of the concentration-response curve) was 430 pM.
